Data: patent US20040253250A1 (XCYTE THERAPIES, published 2004)
Blank lines part the entries; values can stand above or below the molecule they belong to. Bridge positions count the residues as written; N and C are the ends. Ends that are not written are not given here.

What was measured:
[1] = molecular target: CD3εδ-Ig heterodimer (human) (UniProt P07766); assay: BIACORE (SPR); Affinity (nM)
[2] = molecular target: CD3εγ-Ig heterodimer (human) (UniProt P07766); assay: ELISA, anti-CD3 mAb immobilized, fusion protein titrated
Chain of CD3εγ-Ig heterodimer (human) (P07766 23-126, chain 1 of 2): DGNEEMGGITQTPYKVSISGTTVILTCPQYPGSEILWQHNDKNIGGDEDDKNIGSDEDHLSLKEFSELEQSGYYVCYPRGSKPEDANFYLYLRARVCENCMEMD
Chain of CD3εγ-Ig heterodimer (human) (P09693 23-116, chain 2 of 2, further chain): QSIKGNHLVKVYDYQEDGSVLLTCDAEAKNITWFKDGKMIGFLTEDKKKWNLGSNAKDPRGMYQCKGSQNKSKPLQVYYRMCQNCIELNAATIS

CD3ε-Ig (human) = CD3ε-Ig (human) (UniProt P07766); assay: as above
Chain of CD3ε-Ig (human) (P07766 23-126): as the sequence (P07766 23-126, chain 1 of 2) above

CD3γ-Ig (human) = CD3γ-Ig (human) (UniProt P09693); assay: as above
Chain of CD3γ-Ig (human) (P09693 23-116): as the sequence (P09693 23-116, chain 2 of 2, further chain) above

[3] = molecular target: CD3εδ-Ig heterodimer (human) (UniProt P07766); assay: as above
anti-CD3 mAb G19-4 = assay: ELISA: immobilized G19-4 captures titrated CD3-Ig; detection with anti-human IgG hinge-CH2-CH3 HRP conjugate
[4] = molecular target: CD3εδ-Ig heterodimer (human) (UniProt P07766); assay: BIACORE (SPR), fusion protein immobilized, peptide in solution; printed as Binding Affinity
CD28huIg = molecular target: T1, CD28huIg (UniProt P10747 19-152); assay: BIACORE (SPR), fusion protein immobilized, peptide in solution
T1 construct: Immobilized on the BIACORE chip; construct not described; also called CD28Ig; CD28-Ig; not shown: human Ig part (huIg), not further described
Method: BIACORE uses surface plasmon resonance (SPR) which occurs when surface plasmon waves are excited at a metal/liquid interface. Light is directed at, and reflected due to bimolecular interactions between analyte (in solution) and ligand (immobilized). CD3εδhuIg, CD3εεhuIg and CD28huIg were covalently immobilized on a carboxymethy dextran chip using EDC/NHS chemistry followed by blocking with ethanol amine. Peptides were dissolved in HBS buffer at pH 7.2 with or without 1% DMSO, and were allowed to pass over these fusion protein-immobilized surfaces. Non-specific binding was substrated by passing these peptides over a controlled surface prepared by immobilizing EDC/NHS alone followed by ethanolamine.

Chain of CD3εδ-Ig heterodimer (human) (P07766 23-126, stated change not applied, chain 1 of 2): as the sequence (P07766 23-126, chain 1 of 2) above
Chain of CD3εδ-Ig heterodimer (human) (P04234 22-105, stated change not applied, chain 2 of 2, further chain): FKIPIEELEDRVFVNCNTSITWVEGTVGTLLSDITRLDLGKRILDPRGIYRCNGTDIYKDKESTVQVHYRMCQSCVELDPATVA

- Kd [1]: 5.7 nM
Molecule: anti-CD3 mAb BC3 (antibody)

- Kd [1]: 1.28 nM
- saturating concentration of the fusion protein [2]: 20 µg/mL
- saturating concentration of the fusion protein (CD3ε-Ig (human)): > 100 µg/mL
- saturating concentration of the fusion protein (CD3γ-Ig (human)): > 100 µg/mL
- saturating concentration of the fusion protein [3]: 4 µg/mL
Molecule: anti-CD3 mAb G19-4 (antibody)

- EC50 (read off the curve) (anti-CD3 mAb G19-4): 0.1 µg/mL
Molecule: CD3εδ-Ig heterodimer (from UniProt P07766 23-126; P04234 22-105) (Fc fusion)

- EC50 (read off the curve) (anti-CD3 mAb G19-4): 0.8 µg/mL
Molecule: CD3εγ-Ig heterodimer (from UniProt P07766 23-126; P09693 23-116) (Fc fusion)

- Kd [1]: 7.58 nM
Molecule: anti-CD3 mAb 64.1 (antibody)

- Kd [4]: 10000 nM
B1: … (SEQ ID NO:75) (peptide)
peptide: YCYDYDGCY
modifications: disulfide 2-8 (inferred)

- binding result (CD28huIg): no binding
B2: YCYDYDGCY (SEQ ID NO:75) (peptide)
peptide: YCYDYDGCY
modifications: disulfide 2-8 (inferred)

- binding result (CD28huIg): no binding
B3: YCYDYDYCY (SEQ ID NO:76) (peptide)
peptide: YCYDYDYCY
modifications: disulfide 2-8 (inferred)

- binding result (CD28huIg): no binding
B4: YCYDYDFCY (SEQ ID NO:77) (peptide)
peptide: YCYDYDFCY
modifications: disulfide 2-8 (inferred)

- binding result (CD28huIg): no binding
B5: YCYDDHTCY (SEQ ID NO:78) (peptide)
peptide: YCYDDHTCY
modifications: disulfide 2-8 (inferred)

- binding result (CD28huIg): no binding
B6: YCYDDHQCY (SEQ ID NO:79) (peptide)
peptide: YCYDDHQCY
modifications: disulfide 2-8 (inferred)

- binding result (CD28huIg): no binding
B7: YCFDWKNCY (SEQ ID NO:80) (peptide)
peptide: YCFDWKNCY
modifications: disulfide 2-8 (inferred)

- Kd [4]: 500 nM
B8: … (SEQ ID NO:80) (peptide)
peptide: YCFDWKNCY
modifications: disulfide 2-8 (inferred)
